In patent US20090060919A1 (AstraZeneca / MedImmune, published 2009):
Residue numbers refer to the chain shown, from its start. Read-outs that look alike come from different tables or passages of the source. Values belong to the binder of their own block, whether it stands above or below them.

Columns and labels:
[1] = target: T1, human IgEλ (U266 derived) (human, UniProt P01854-1 1-428); test: HTRF competition: scFv against Eu-cryptate human IgE binding to human FcεRI-Fc; geomean (95% CI)
T1 construct: Whole IgE purified from U266 cells (Ikeyama et al. 1986); labelled with europium cryptate or biotin in some assays; also called human IgE (U266-derived); human IgE lambda
T1 sequence (P01854 other isoform, or with tags, fused parts or gaps): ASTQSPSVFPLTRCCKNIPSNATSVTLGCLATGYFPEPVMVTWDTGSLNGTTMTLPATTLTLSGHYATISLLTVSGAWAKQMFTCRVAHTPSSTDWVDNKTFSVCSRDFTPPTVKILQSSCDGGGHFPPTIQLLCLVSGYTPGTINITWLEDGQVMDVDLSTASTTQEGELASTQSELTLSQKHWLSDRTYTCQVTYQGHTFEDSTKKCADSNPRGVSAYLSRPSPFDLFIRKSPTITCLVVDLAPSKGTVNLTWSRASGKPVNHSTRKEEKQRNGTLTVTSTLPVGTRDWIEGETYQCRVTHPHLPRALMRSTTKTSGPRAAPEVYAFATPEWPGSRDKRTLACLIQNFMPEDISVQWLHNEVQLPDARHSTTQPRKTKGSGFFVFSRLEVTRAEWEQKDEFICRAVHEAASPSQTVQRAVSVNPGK

[2] = target: T1, human IgEλ (U266 derived); test: SPR (BIAcore 2000): IgG captured on protein G', IgE as analyte, bivalent analyte model; geomean
Experimental: (§1) In brief, Protein G′ (Sigma Aldrich, P4689) was covalently coupled to the surface of a CM5 sensor chip using standard amine coupling reagents according to manufacturer's instructions (BIAcore). […] The resulting sensorgrams were evaluated using BIA evaluation 3.1 software and fitted to a bivalent analyte model, to provide relative binding data.

[3] = target: T1, human IgEλ (U266 derived); test: cell-based or functional assay
[4] = target: T1, human IgEλ (U266 derived); test: cell-based or functional assay; remark: listed apart in the source
[5] = target: recombinant chimaeric cynomolgus IgE (D12 variable regions, cynomolgus IgE constant region) (cynomolgus monkey); test: cell-based or functional assay
Sequence of recombinant chimaeric cynomolgus IgE (D12 variable regions, cynomolgus IgE constant region) (cynomolgus monkey) (heavy, as listed by the source limits assumed, chain 1 of 2): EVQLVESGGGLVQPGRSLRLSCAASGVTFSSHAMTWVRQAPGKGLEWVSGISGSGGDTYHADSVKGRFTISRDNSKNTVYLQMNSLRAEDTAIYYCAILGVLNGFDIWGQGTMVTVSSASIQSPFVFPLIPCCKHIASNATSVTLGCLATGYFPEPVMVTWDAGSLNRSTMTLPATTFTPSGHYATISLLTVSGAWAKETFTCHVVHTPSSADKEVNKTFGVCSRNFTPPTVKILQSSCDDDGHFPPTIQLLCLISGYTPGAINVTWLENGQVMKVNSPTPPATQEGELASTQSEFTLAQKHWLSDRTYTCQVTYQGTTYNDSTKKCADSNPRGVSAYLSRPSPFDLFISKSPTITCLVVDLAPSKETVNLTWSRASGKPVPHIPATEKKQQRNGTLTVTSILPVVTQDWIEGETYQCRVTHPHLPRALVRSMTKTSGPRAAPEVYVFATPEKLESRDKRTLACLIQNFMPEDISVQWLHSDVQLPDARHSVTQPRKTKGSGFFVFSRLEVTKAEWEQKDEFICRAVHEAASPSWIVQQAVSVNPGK
Sequence of recombinant chimaeric cynomolgus IgE (D12 variable regions, cynomolgus IgE constant region) (cynomolgus monkey) (light, as listed by the source limits assumed, chain 2 of 2): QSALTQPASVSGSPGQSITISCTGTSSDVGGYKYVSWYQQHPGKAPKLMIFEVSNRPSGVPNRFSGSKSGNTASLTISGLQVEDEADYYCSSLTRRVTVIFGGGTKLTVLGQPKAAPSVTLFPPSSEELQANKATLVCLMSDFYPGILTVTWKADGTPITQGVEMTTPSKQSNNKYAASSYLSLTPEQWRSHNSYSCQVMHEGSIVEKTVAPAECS

[6] = target: T1, human IgEλ (U266 derived); test: flow cytometry: inhibition of IgE binding to CD23 on IM9 cells
Experimental: Antibodies were evaluated for inhibition of the IgE/CD23 interaction. […] In brief, titrations of the test IgG were mixed with IgE prior to incubation with 1M9 cells.
Assay plates were incubated on ice for 20 minutes in the dark before centrifuging at 2000 rpm for 2 minutes and washing with 2×200 uL of Flow buffer as described above. Cells were resuspended in 100 uL Cell Fix (BD biosciences) and analysed using a FACSCalibur (BD Biosciences) to detect FL2 staining.

[7] = target: T1, human IgEλ (U266 derived); test: SPR (BIAcore 2000): IgG captured on protein G', IgE as analyte, bivalent analyte model; geomean; remark: listed apart in the source
Experimental: as §1

[8] = target: T1, human IgEλ (U266 derived); test: HTRF competition: scFv against Eu-cryptate human IgE binding to human FcεRI-Fc; geomean
IgE in human serum = target: T2, IgE in human serum (human, UniProt P01854-1 1-428); test: ELISA: free serum IgE captured on coated FcERI-Fc-His after mixing serum with antibody; representative experiment
T2 construct: also called IgE in serum; free IgE
T2 sequence (P01854 other isoform, or with tags, fused parts or gaps): as the sequence (P01854 other isoform, or with tags, fused parts or gaps) above
Experimental: Serum samples were prepared from blood samples from human donors. […] To reduce background binding, plates were subsequently incubated with 200 μl/well of block buffer consisting of PBS containing 0.5% BSA, incubated at room temperature for 2 hours, and washed three times with PBST as described above. […] The plates were sealed and samples incubated at room temperature for 2 hours. To remove unbound sample, plates were washed three times with PBST as described. […] The plates were then sealed again, and incubated for 1 hour at room temperature. […] The conjugate was diluted 1:25000 in PBST, 150 μl added per well, the plates sealed, and incubated for 1 hour at room temperature. The plates were then washed three times with PBST as described. TMB-substrate solution (DAKO Substrate-Chromogen, No. S1599), 150 μl/well, was then added to each well and the plates incubated for 10 minutes at room temperature.

human IgE [9] = target: T3, human IgE (human, UniProt P01854-1 1-428); test: KinExA
T3 construct: lead-isolation RBL-ER51 assays: Calbiochem or U266-derived; also called IgE (Calbiochem or U266-derived); purified human IgE
T3 sequence (P01854 other isoform, or with tags, fused parts or gaps): as above

human IgE [10] = target: T3, human IgE; test: cell-based or functional assay

RBL-ER51 calcium signalling IC50 (Geomean), Human IgE [4]: 0.306 nM
RBL-ER51 calcium signalling IC50 (Geomean), Cynomolgus IgE [5]: 3.58 nM
B4: Antibody 21 IgG (antibody, V domains shown)
VH: QVQLVQSGAEVKKPGATVKLSCKVYGYIFTDYNIYWVRQAPGKGLEWMGLIDPDNGETFYAEKFQGRATMTADTSSDRAYMELTSLTFEDTATYYCATVTLKSAKGGYDYWGRGTLVTVSS
VL: QSVLTQPPSVSGAPGQRVTISCTGSSSNIGAGYDVHWYQQLPGTAPKLLIYDNFNRPSGVPDRFSGSKSGTSASLAIIGLQTEDEADYYCQSYDSSSQLSPFGTGTKLTVL

RBL-ER51 calcium signalling IC50 (Geomean), Human IgE [4]: 0.262 nM
RBL-ER51 calcium signalling IC50 (Geomean), Cynomolgus IgE [5]: 2.66 nM
B5: Antibody 22 IgG (antibody, V domains shown)
VH: B4 VH
VL: B4 VL with S97G, Q98G, L99Y, S100A

IC50 [6]: 16 nM
B6: Antibody 1 IgG (antibody, V domains shown)
VH: B4 VH with T100L, L101H, K102R, S103R, A104L
VL: B4 VL with S97L, Q98S, L99G, P101L
notes: IgG1 or IgG2 vectors named; also called parent antibody

RBL-ER51 calcium signalling IC50 (Geomean), Human IgE [4]: 0.134 nM
Kd [7]: 2.3 nM
B9: Antibody 12 IgG (antibody, V domains shown)
VH: B4 VH with T100M, L101G, S103W, A104I
VL: B4 VL with S97I, Q98D, L99H
notes: Whole human IgG (section 1.4: IgG1)

RBL-ER51 calcium signalling IC50 (Geomean), Human IgE [4]: 0.099 nM
Kd [7]: 3.2 nM
B10: Antibody 28 IgG (antibody, V domains shown)
VH: B4 VH with T100M, L101G, S103W, A104I
VL: B4 VL with Q98L, L99H
notes: as for B9

RBL-ER51 calcium signalling IC50 (Geomean), Human IgE [4]: 0.088 nM
Kd [7]: 2.3 nM
B11: Antibody 13 IgG (antibody, V domains shown)
VH: B4 VH with T100M, L101G, S103W, A104I
VL: B4 VL with S96N, S97I, Q98L, L99Y
notes: as for B9

RBL-ER51 calcium signalling IC50 (Geomean), Human IgE [4]: 0.112 nM
IC50 [6]: 16.5 nM
Kd [7]: 2.6 nM
B14: Antibody 8 IgG (antibody, V domains shown)
VH: B4 VH with T100L, L101G, K102R, S103W, A104I
VL: B4 VL with S96P, S97T, Q98H, L99T
notes: as for B9

RBL-ER51 calcium signalling IC50 (Geomean), Human IgE [4]: 0.292 nM
Kd [7]: 4.6 nM
B17: Antibody 16 IgG (antibody, V domains shown)
VH: B4 VH with T100S
VL: B4 VL with S96R, S97H, Q98H, L99H, S100A
notes: as for B9

IC50 [1]: 3 nM
B19: Antibody 5 scFv (scFv, V domains shown)
VH: B4 VH with T100M, L101G, S103W, A104I
VL: B4 VL with S96T, S97K, Q98H, L99T
notes: Purified scFv, non-germlined; not shown: scFv linker and any tags; the libraries are only cited to Vaughan et al. 1996

RBL-ER51 calcium signalling IC50 (Geomean), Human IgE [4]: 0.109 nM
Kd [7]: 2.7 nM
B20: Antibody 23 IgG (antibody, V domains shown)
VH: B4 VH with T100M, L101G, S103W, A104I
VL: B4 VL with S96H, S97H, Q98L, L99Y, P101S
notes: as for B9

IC50 (IgE in human serum): 0.202 nM
RBL-ER51 calcium signalling IC50 (Geomean), Human IgE [4]: 0.069 nM
Kd (human IgE [9]): 0.0063 nM
IC50 [6]: 23 nM
Kd [7]: 1.6 nM
induction of IgE positive human B cells (intracellular IgE, flow cytometry), IC50 (human IgE [10]): 1.6 nM
β-hexosaminidase release of LAD2 mast cells, IC50 (human IgE [10]): 0.04 nM
B21: Antibody 11 IgG (antibody, V domains shown)
VH: B4 VH with T100M, L101G, S103W, A104I
VL: B4 VL with S96P, S97T, Q98L, L99T
notes: as for B9

RBL-ER51 calcium signalling IC50 (Geomean), Human IgE [4]: 0.191 nM
Kd [7]: 3.3 nM
B22: Antibody 20 IgG (antibody, V domains shown)
VH: B4 VH with T100M, L101G, S103W, A104I
VL: B4 VL with S97T, Q98S, L99S
notes: as for B9

RBL-ER51 calcium signalling IC50 (Geomean), Human IgE [4]: 0.095 nM
Kd [7]: 2.5 nM
B25: Antibody 19 IgG (antibody, V domains shown)
VH: B4 VH with T100M, L101G, S103W, A104I
VL: B4 VL with S96T, S97L, Q98S, L99H
notes: as for B9

More lines, now with the values behind:

B1: Antibody 1 scFv (scFv, V domains shown)
VH: B4 VH with T100L, L101H, K102R, S103R, A104L
VL: B4 VL with S97L, Q98S, L99G, P101L
notes: Purified scFv, non-germlined; also called parent; not shown: scFv linker and any tags; the libraries are only cited to Vaughan et al. 1996
IC50 [1]: 475 nM

B2: Antibody 8 GL IgG (antibody, V domains shown)
VH: B4 VH with Q1E, L20I, T84S, T87R, T93V, T100L, L101G, K102R, S103W, A104I
VL: B4 VL with I78T, T82A, S96P, S97T, Q98H, L99T
notes: Germlined IgG
Kd [2]: 2.5 nM
RBL-ER51 calcium signalling IC50 (Geomean), Human IgE [3]: 0.085 nM

B3: Antibody 26 IgG (antibody, V domains shown)
VH: B4 VH with T100S, S103E
VL: B4 VL with S96A, Q98R, L99H, S100A
RBL-ER51 calcium signalling IC50 (Geomean), Human IgE [4]: 0.398 nM
RBL-ER51 calcium signalling IC50 (Geomean), Cynomolgus IgE [5]: 5.1 nM

B7: Antibody 18 IgG (antibody, V domains shown)
VH: B4 VH with T100L, K102R
VL: B4 VL with S96H, S97L
notes: as for B9
RBL-ER51 calcium signalling IC50 (Geomean), Human IgE [4]: 0.532 nM
Kd [7]: 8 nM

B8: Antibody 11 GL IgG (antibody, V domains shown)
VH: B4 VH with Q1E, L20I, T84S, T87R, T93V, T100M, L101G, S103W, A104I
VL: B4 VL with I78T, T82A, S96P, S97T, Q98L, L99T
notes: Germlined IgG
Kd [2]: 1.5 nM
RBL-ER51 calcium signalling IC50 (Geomean), Human IgE [3]: 0.084 nM

B12: Antibody 13 scFv (scFv, V domains shown)
VH: B4 VH with T100M, L101G, S103W, A104I
VL: B4 VL with S96N, S97I, Q98L, L99Y
notes: Purified scFv, non-germlined
IC50 [8]: 2 nM

B13: Antibody 8 scFv (scFv, V domains shown)
VH: B4 VH with T100L, L101G, K102R, S103W, A104I
VL: B4 VL with S96P, S97T, Q98H, L99T
notes: Purified scFv, non-germlined
IC50 [1]: 5 nM

B15: Antibody 11 scFv (scFv, V domains shown)
VH: B4 VH with T100M, L101G, S103W, A104I
VL: B4 VL with S96P, S97T, Q98L, L99T
notes: Purified scFv, non-germlined
IC50 [1]: 2 nM

B16: Antibody 4 scFv (scFv, V domains shown)
VH: B4 VH with T100M, L101G, S103W, A104I
VL: B4 VL with S96R, S97G, Q98G, L99H
notes: as for B19
IC50 [1]: 2 nM

B18: Antibody 6 scFv (scFv, V domains shown)
VH: B4 VH with T100M, L101G, S103W, A104I
VL: B4 VL with S96T, S97M, Q98R, L99H, S100G
notes: as for B19
IC50 [8]: 3 nM

B23: Antibody 16 scFv (scFv, V domains shown)
VH: B4 VH with T100S
VL: B4 VL with S96R, S97H, Q98H, L99H, S100A
notes: Purified scFv, non-germlined
IC50 [1]: 5 nM

B24: Antibody 12 scFv (scFv, V domains shown)
VH: B4 VH with T100M, L101G, S103W, A104I
VL: B4 VL with S97I, Q98D, L99H
notes: Purified scFv, non-germlined
IC50 [8]: 3 nM
